“And” between values parts separate entries of the source, which are not always exact repeats. Equal entries are not always repeated.
What was measured:
[1] = target: T1, HPV45型衣壳蛋白L1病毒样颗粒(VLP)抗原 (HPV 45型) (UniProt P36741); experiment: sandwich ELISA, rabbit pAb R163 capture 1:500, mAb 1:20000; antigen 13.3 ug/ml, 2.5-fold series, step 11
T1 sequence: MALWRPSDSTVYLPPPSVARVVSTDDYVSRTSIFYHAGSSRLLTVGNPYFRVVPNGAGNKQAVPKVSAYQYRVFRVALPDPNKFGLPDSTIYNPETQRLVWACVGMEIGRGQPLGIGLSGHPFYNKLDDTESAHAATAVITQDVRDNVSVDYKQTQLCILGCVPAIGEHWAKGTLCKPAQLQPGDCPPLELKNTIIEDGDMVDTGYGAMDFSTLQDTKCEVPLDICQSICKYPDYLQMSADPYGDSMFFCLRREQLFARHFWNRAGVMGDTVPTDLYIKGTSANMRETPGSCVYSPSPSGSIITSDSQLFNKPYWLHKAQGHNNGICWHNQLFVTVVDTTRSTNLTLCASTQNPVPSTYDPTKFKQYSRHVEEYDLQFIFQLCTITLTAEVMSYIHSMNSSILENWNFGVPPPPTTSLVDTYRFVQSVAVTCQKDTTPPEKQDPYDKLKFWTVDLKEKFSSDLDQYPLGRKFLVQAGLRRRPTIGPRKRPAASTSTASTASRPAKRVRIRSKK

HPV 33 VLP抗原 = target: T2, HPV 33 VLP抗原 (HPV 33, UniProt P06416 1-499); experiment: direct ELISA on coated VLP antigens
T2 sequence: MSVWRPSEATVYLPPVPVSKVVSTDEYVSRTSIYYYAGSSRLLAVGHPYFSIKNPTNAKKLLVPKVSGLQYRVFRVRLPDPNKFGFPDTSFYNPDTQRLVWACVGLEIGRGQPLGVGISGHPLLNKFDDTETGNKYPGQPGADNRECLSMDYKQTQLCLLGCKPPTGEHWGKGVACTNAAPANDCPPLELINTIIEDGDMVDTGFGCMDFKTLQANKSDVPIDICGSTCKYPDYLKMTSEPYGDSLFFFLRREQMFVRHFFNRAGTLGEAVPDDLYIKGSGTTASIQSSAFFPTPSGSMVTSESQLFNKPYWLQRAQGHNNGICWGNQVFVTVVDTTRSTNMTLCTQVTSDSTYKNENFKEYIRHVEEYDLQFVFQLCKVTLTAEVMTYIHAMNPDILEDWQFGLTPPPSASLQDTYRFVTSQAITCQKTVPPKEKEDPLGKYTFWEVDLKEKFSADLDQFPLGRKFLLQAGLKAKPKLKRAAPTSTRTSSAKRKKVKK

HPV 16 VLP抗原 = target: T3, HPV 16 VLP抗原 (HPV 16, UniProt P03101 1-505); experiment: direct ELISA on coated VLP antigens
T3 sequence: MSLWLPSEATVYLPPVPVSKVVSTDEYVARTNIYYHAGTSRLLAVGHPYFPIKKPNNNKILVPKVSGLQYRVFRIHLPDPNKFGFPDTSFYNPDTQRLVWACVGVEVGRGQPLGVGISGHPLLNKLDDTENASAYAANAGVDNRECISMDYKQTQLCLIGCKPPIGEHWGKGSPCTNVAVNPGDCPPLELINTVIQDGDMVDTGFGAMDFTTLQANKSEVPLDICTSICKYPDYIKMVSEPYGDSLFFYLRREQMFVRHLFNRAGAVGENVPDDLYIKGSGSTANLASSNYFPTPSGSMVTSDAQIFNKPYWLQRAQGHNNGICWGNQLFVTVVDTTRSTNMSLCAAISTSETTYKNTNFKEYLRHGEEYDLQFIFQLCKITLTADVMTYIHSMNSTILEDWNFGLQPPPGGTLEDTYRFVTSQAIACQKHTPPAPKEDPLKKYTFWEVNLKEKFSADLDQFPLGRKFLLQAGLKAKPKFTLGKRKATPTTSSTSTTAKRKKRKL

[2] = target: T1, HPV45型衣壳蛋白L1病毒样颗粒(VLP)抗原 (HPV 45型); experiment: sandwich ELISA, rabbit pAb R163 capture 1:500, mAb 1:20000; antigen 13.3 ug/ml, 2.5-fold series, step 8
[3] = target: T1, HPV45型衣壳蛋白L1病毒样颗粒(VLP)抗原 (HPV 45型); experiment: sandwich ELISA, rabbit pAb R163 capture 1:500, mAb 1:20000; antigen 13.3 ug/ml, 2.5-fold series, step 1
[4] = target: T1, HPV45型衣壳蛋白L1病毒样颗粒(VLP)抗原 (HPV 45型); experiment: sandwich ELISA, rabbit pAb R163 capture 1:500, mAb 1:20000; antigen 13.3 ug/ml, 2.5-fold series, step 7
[5] = target: T1, HPV45型衣壳蛋白L1病毒样颗粒(VLP)抗原 (HPV 45型); experiment: sandwich ELISA, rabbit pAb R163 capture 1:500, mAb 1:20000; antigen 13.3 ug/ml, 2.5-fold series, step 6
[6] = target: T1, HPV45型衣壳蛋白L1病毒样颗粒(VLP)抗原 (HPV 45型); experiment: sandwich ELISA, rabbit pAb R163 capture 1:500, mAb 1:20000; antigen 13.3 ug/ml, 2.5-fold series, step 2
[7] = target: T1, HPV45型衣壳蛋白L1病毒样颗粒(VLP)抗原 (HPV 45型); experiment: sandwich ELISA, rabbit pAb R163 capture 1:500, mAb 1:20000; antigen 13.3 ug/ml, 2.5-fold series, step 5
[8] = target: T1, HPV45型衣壳蛋白L1病毒样颗粒(VLP)抗原 (HPV 45型); experiment: direct ELISA on coated HPV45 VLP, purified antibody titrated; positive if OD > 2.1 x NC
[9] = target: T1, HPV45型衣壳蛋白L1病毒样颗粒(VLP)抗原 (HPV 45型); experiment: sandwich ELISA, rabbit pAb R163 capture 1:500, mAb 1:20000; antigen 13.3 ug/ml, 2.5-fold series, step 4

| Binder | OD [1] | binding result (HPV 33 VLP抗原) | binding result (HPV 16 VLP抗原) | OD [2] | OD [3] | OD [4] | OD [5] | OD [6] | OD [7] | 灵敏度 [8] [µg/mL] | OD [9] |
| --- | --- | --- | --- | --- | --- | --- | --- | --- | --- | --- | --- |
| 杂交瘤细胞株7A5(CGMCC NO:45706)分泌的鼠源单克隆抗体 (antibody, V domains shown, also called 鼠单抗7A5; 抗体7A5) VH: QPGAELVKPGASVKLSCKASGYTFTSYWMHWVKQRPGQGLEWIGEINPSNGHTNYNEKFKSKATLTVDKSSSTAYMQLSSLTSEDSAVYYCAPCYGSSYDYYAMDYWGQGTSVTVSS VL: DIVLTQSPASLAVSLGQRATISCRASQSVSTSSYSYMHWYQQKPGQPPKLLIKYASNLESGVPARFSGSGSGTDFTLNIHPVEEEDTATYYCQHSWEIPYTFGGGTKLEIK | 0.066 OD and 0.056 OD | no binding | no binding | 0.175 OD and 0.189 OD | 3.12 OD | 0.379 OD and 0.358 OD | 0.614 OD and 0.773 OD | 3.05 OD and 3 OD | 1.54 OD and 1.56 OD | 0.0005 | 2.34 OD and 2.37 OD |
| 杂交瘤细胞株11G1(CGMCC NO:45707)分泌的鼠源单克隆抗体 (antibody, V domains shown, also called 鼠单抗11G1; 抗体11G1) VH: QVQLQQPGAELVKPGASVKLSCKASGYTFTSYWMHWVKRRPGQGLEWIGEINPSNGLTNYNEKFKSKGTLTVDKSSSAAFMHLSSLTSEDSAVYYCARFHGSDLYAMDYWGQGTSVTVSS VL: DIVLTQSPASLAVSLGQRATISCRASQSVSTSSYSYMHWYQQKPGQPPKLLIKYASNLESGVPARFSGSGSGTDFTLNIHPVEEEDTATYYCQHSWEIPYTFGGGTKLEIK | 0.05 OD and 0.046 OD | no binding | no binding | 0.115 OD and 0.108 OD | 3.1 OD and 3.01 OD | 0.218 OD and 0.206 OD | 0.364 OD and 0.447 OD | 3.03 OD and 3.09 OD | 0.922 OD and 1.02 OD | 0.0005 | 1.82 OD and 1.98 OD |

Source: patent CN117466995A (YIDAO BIOTECHNOLOGY SUZHOU CO LTD, dated 2024)
